Test results from IntAct's records for PubMed 21035448.

B1: Regulator of G-protein signaling 4 (Rattus norvegicus (Rat)), P49799 (parent)
chain: MCKGLAGLPASCLRSAKDMKHRLGFLLQKSDSCEHSSSHSKKDKVVTCQRVSQEEVKKWAESLENLINHECGLAAFKAFLKSEYSEENIDFWISCEEYKKIKSPSKLSPKAKKIYNEFISVQATKEVNLDSCTREETSRNMLEPTITCFDEAQKKIFNLMEKDSYRRFLKSRFYLDLTNPSSCGAEKQKGAKSSADCTSLVPQCA
partner: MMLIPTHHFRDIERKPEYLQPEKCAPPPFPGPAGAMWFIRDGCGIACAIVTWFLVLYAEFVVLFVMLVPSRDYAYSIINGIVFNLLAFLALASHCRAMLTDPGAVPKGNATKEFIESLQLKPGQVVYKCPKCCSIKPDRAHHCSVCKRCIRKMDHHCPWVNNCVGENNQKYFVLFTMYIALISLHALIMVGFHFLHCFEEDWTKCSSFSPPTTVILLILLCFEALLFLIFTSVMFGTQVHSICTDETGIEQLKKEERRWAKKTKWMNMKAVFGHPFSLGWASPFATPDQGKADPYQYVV

Variants of: B1
Conditions: with zdhc3_mouse Zdhhc3, Q8R173

Variant	effect of a mutation on the interaction
C2S	disrupting interaction
